Measurements: the supplement of paper PMC9112550, “Optimization of the antimicrobial peptide Bac7 by deep mutational scanning” (BMC Biology, 2022)

Test system: Escherichia coli TOP10
Test: shrunken log2 fold change of peptide-encoding DNA abundance (4.5 h post-induction vs induction); higher = less antimicrobial activity (less host growth inhibition)
Details: time post-induction: 4.5 h; library: site-saturation at positions 5, 18, 19, 20
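Note: peptides expressed intracellularly from a pBAD plasmid library in pooled LB shake-flask culture, induced with 0.3% L-arabinose, DNA abundance read by NGS, three biological replicates, DESeq2 with apeglm shrinkage.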

Sequence | shrunken log2 fold change
RRIRERPPRLPRPRPRPCSQPRP | -0.0493
RRIRTRPPRLPRPRPRPETNPRP | 0.402
RRIRVRPPRLPRPRPRPESAPRP | 0.522
RRIRCRPPRLPRPRPRPLGYPRP | 0.0405
RRIRSRPPRLPRPRPRPIKIPRP | -0.209
RRIRPRPPRLPRPRPRPDASPRP | 0.37
RRIRCRPPRLPRPRPRPDLKPRP | -0.257
RRIRYRPPRLPRPRPRPMYGPRP | -0.00999
RRIRWRPPRLPRPRPRPFNTPRP | -0.0751
RRIRGRPPRLPRPRPRPQTHPRP | 1.41
RRIRPRPPRLPRPRPRPELYPRP | 0.0891
RRIRLRPPRLPRPRPRPGAYPRP | -0.16
RRIRYRPPRLPRPRPRPPTWPRP | -0.0624
RRIRFRPPRLPRPRPRPQFWPRP | 0.206
RRIRYRPPRLPRPRPRPTLCPRP | -0.239
RRIRARPPRLPRPRPRPVIGPRP | 0.535
RRIRCRPPRLPRPRPRPHESPRP | -0.123
RRIRSRPPRLPRPRPRPCCRPRP | -0.0822
RRIRARPPRLPRPRPRPWINPRP | -0.218
RRIRMRPPRLPRPRPRPVRLPRP | 0.116
RRIRNRPPRLPRPRPRPWVFPRP | -0.221
RRIRTRPPRLPRPRPRPGIPPRP | -0.394
RRIRHRPPRLPRPRPRPINKPRP | -0.652
RRIRIRPPRLPRPRPRPVHYPRP | -0.497
RRIRKRPPRLPRPRPRPHEFPRP | -0.0156

Sequence | shrunken log2 fold change
RRIRVRPPRLPRPRPRPLYIPRP | -0.555
RRIRDRPPRLPRPRPRPFTCPRP | -0.00884
RRIRYRPPRLPRPRPRPIINPRP | -0.099
RRIRKRPPRLPRPRPRPKILPRP | 0.362
RRIRNRPPRLPRPRPRPSMEPRP | -0.118
RRIRVRPPRLPRPRPRPMIHPRP | -0.465
RRIRRRPPRLPRPRPRPDMDPRP | -0.108
RRIRWRPPRLPRPRPRPLDAPRP | 0.354
RRIRDRPPRLPRPRPRPLRYPRP | 0.00765
RRIRMRPPRLPRPRPRPSRKPRP | 0.148
RRIRKRPPRLPRPRPRPEKCPRP | 0.0317
RRIRIRPPRLPRPRPRPWCEPRP | -0.639
RRIRYRPPRLPRPRPRPQRVPRP | -0.393
RRIRVRPPRLPRPRPRPIHKPRP | -0.203
RRIRDRPPRLPRPRPRPWKQPRP | -0.0551
RRIRMRPPRLPRPRPRPIYIPRP | -0.156
RRIRARPPRLPRPRPRPERFPRP | 0.0769
RRIRKRPPRLPRPRPRPPQRPRP | 1.08
RRIRYRPPRLPRPRPRPDSPPRP | -0.391
RRIRLRPPRLPRPRPRPQTWPRP | 0.0171
RRIRKRPPRLPRPRPRPPESPRP | 0.303
RRIRKRPPRLPRPRPRPGNCPRP | 0.0147
RRIRYRPPRLPRPRPRPKWEPRP | -0.263
RRIRLRPPRLPRPRPRPYPYPRP | -0.076
RRIRCRPPRLPRPRPRPKFKPRP | -0.287

Sequence | shrunken log2 fold change
RRIRDRPPRLPRPRPRPNNPPRP | -0.357
RRIRRRPPRLPRPRPRPIFNPRP | -0.124
RRIRCRPPRLPRPRPRPMPIPRP | -0.197
RRIRHRPPRLPRPRPRPFYLPRP | -0.915
RRIRQRPPRLPRPRPRPEHYPRP | -0.153
RRIRTRPPRLPRPRPRPCHVPRP | -0.114
RRIRQRPPRLPRPRPRPCKVPRP | -0.101
RRIRNRPPRLPRPRPRPHSEPRP | -0.438
RRIRYRPPRLPRPRPRPREMPRP | -0.126
RRIRARPPRLPRPRPRPCLVPRP | 0.0528
RRIRSRPPRLPRPRPRPNRPPRP | -0.0188
RRIRGRPPRLPRPRPRPLRMPRP | 0.848
RRIRGRPPRLPRPRPRPPPHPRP | 1.26
RRIRARPPRLPRPRPRPYWCPRP | -0.33
RRIRVRPPRLPRPRPRPFSCPRP | -0.323
RRIRARPPRLPRPRPRPFKDPRP | -0.0208
RRIRLRPPRLPRPRPRPIPSPRP | -0.177
RRIRRRPPRLPRPRPRPMYSPRP | -0.0989
RRIRCRPPRLPRPRPRPNSIPRP | -0.314
RRIRVRPPRLPRPRPRPWAEPRP | -0.0172
RRIRYRPPRLPRPRPRPHLRPRP | -0.485
RRIRWRPPRLPRPRPRPGKFPRP | 0.26
RRIRMRPPRLPRPRPRPAVDPRP | 0.154
RRIRMRPPRLPRPRPRPCPRPRP | 0.167
RRIRKRPPRLPRPRPRPSSTPRP | -0.151

Sequence | shrunken log2 fold change
RRIRFRPPRLPRPRPRPGIHPRP | -0.0365
RRIRKRPPRLPRPRPRPQSAPRP | 0.319
RRIRFRPPRLPRPRPRPLADPRP | -0.0773
RRIRWRPPRLPRPRPRPLKEPRP | -0.0713
RRIRIRPPRLPRPRPRPMWNPRP | -0.472
RRIRYRPPRLPRPRPRPNCFPRP | -0.43
RRIRHRPPRLPRPRPRPARNPRP | 0.093
RRIRKRPPRLPRPRPRPGLFPRP | 0.556
RRIRKRPPRLPRPRPRPVGMPRP | 0.554
RRIRYRPPRLPRPRPRPTNLPRP | -0.661
RRIRTRPPRLPRPRPRPMRVPRP | -0.036
RRIRDRPPRLPRPRPRPFQFPRP | -0.324
RRIRWRPPRLPRPRPRPIPGPRP | 0.0313
RRIRTRPPRLPRPRPRPCLFPRP | -0.16
RRIRWRPPRLPRPRPRPYPEPRP | -0.224
RRIRNRPPRLPRPRPRPYSIPRP | -0.534
RRIRPRPPRLPRPRPRPHHAPRP | -0.125
RRIRMRPPRLPRPRPRPSMKPRP | 0.0872
RRIRVRPPRLPRPRPRPWYKPRP | -0.252
RRIRDRPPRLPRPRPRPGNGPRP | 0.12
RRIRFRPPRLPRPRPRPNQVPRP | -1.05
RRIRRRPPRLPRPRPRPRRQPRP | 0.554
RRIRERPPRLPRPRPRPGTEPRP | -0.049
RRIRNRPPRLPRPRPRPWIAPRP | -0.135
RRIRNRPPRLPRPRPRPMMKPRP | 2.77

Sequence | shrunken log2 fold change
RRIRYRPPRLPRPRPRPCLMPRP | -0.225
RRIRMRPPRLPRPRPRPEHYPRP | -0.0905
RRIRFRPPRLPRPRPRPAYTPRP | -0.876
RRIRLRPPRLPRPRPRPLGGPRP | 0.157
RRIRERPPRLPRPRPRPGTDPRP | 8.37e-05
RRIRDRPPRLPRPRPRPTFQPRP | 0.0497
RRIRCRPPRLPRPRPRPFSDPRP | -0.165
RRIRLRPPRLPRPRPRPTCVPRP | 0.0314
RRIRARPPRLPRPRPRPKERPRP | 0.415
RRIRYRPPRLPRPRPRPSTIPRP | -0.324
RRIRARPPRLPRPRPRPMKWPRP | 0.126
RRIRCRPPRLPRPRPRPVWWPRP | 0.261
RRIRGRPPRLPRPRPRPTDNPRP | 0.283
RRIRHRPPRLPRPRPRPCQFPRP | -0.0209
RRIRVRPPRLPRPRPRPRMIPRP | 0.224
RRIRCRPPRLPRPRPRPWYCPRP | -0.248
RRIRVRPPRLPRPRPRPSTMPRP | -0.213
RRIRWRPPRLPRPRPRPYNLPRP | -0.991
RRIRRRPPRLPRPRPRPTKYPRP | -0.198
RRIRVRPPRLPRPRPRPQGYPRP | 0.0811
RRIRYRPPRLPRPRPRPEMTPRP | -0.0508
RRIRVRPPRLPRPRPRPLGIPRP | -0.105
RRIRTRPPRLPRPRPRPQLTPRP | -0.0274
RRIRHRPPRLPRPRPRPNNQPRP | -0.465
RRIRIRPPRLPRPRPRPDKRPRP | -0.0405
